Read-outs that look alike come from different tables or passages of the source.
How the values were obtained:
[1] = test system: Human epithelial cervical cancer (HeLa) cell line; type: cell-based; conditions: HeLa cells
Procedure: Human epithelial cervical cancer (HeLa) cell line was obtained from American Type Culture Collection (ATCC, Manassas, Va.) and maintained at 37° C. under a 5% carbon dioxide (CO2) atmosphere in Dulbecco's modified eagle medium (DMEM, Gibco) supplemented with 10% fetal bovine serum (FBS), 50 U/mL penicillin, and 50 μg/mL streptomycin. Stock solutions of PAMAM-PEG2000-TIPAA conjugate Compounds 1c-4c were prepared by dissolving 10 mg of each vacuum-dried solid sample in 1.0 mL of deionized water (Millipore Milli-Q) to make a 10 mg/mL solution. Each stock solution was sonicated briefly to ensure homogeneity. Serial dilutions were carried out using serum-free DMEM to prepare samples of the following concentrations: 1, 5, 10, 50, 100, and 500 μg/mL. HeLa cells were seeded in a flat bottomed 96-well plate (Corning Costar, Cambridge, Mass.) at a density of 1×10^3 cells per well and incubated for 24 hours at 37° C. under a 5% CO2 atmosphere to allow cell attachment. Cells were treated with 100 μL of each dilution or 100 μL of serum-free DMEM (as a control) per well and incubated at 37° C. under a 5% CO2 atmosphere for 24, 48, or 72 hours. The formulations were replaced with serum-free DMEM containing 5 mg/mL 3-(4,5-dimethylthiazol-2-yl)-2,5-diphenyltetrazolium bromide (MTT) and cells were incubated for additional 4 hours. MTT was removed by aspiration and DMSO (100 μL) was added to each well to dissolve the formazan crystals [Mosmann, T., J. Immunol. Methods 1983, 65, 55-63]. Assays were carried out in quadruplicates.

[2] = type: physicochemical
Procedure: (§1) Sample solutions for in vivo injections as CT contrast agents were prepared by dissolving each PAMAM-PEG2000-TIPAA conjugate (Compound 1c, 2c, 3c, or 4c) at 250 mg/mL in the sterilized 20 mM Tris buffer (242 mg tromethamine and 10 mg EDTA dissolved in 100 mL of deionized water (Millipore Milli-Q), pH 7.4). The resulting solution was sonicated briefly to ensure homogeneity and stored at 4° C., if not used immediately. Before the injection to the animal, the contrast agent solutions were removed from the fridge, warmed to room temperature, and agitated by vortex.
The results of the viscosity (30° C.) and osmolality measurements of the CT contrast media solutions of the present invention are summarized in the following Table 1.
In Table 1, the values are presented as the mean±standard deviation. Five independent measurements were made for each compound under the same conditions, and the mean and standard deviation were calculated after excluding the highest and lowest values (i.e., 3 data).

[3] = Micro-CT 2D X-ray snapshot imaging of contrast media solutions in tubes
Procedure: Prior to the in vivo injection of CT contrast media (250 mg/mL) including Compounds 1c, 2c, 3c, or 4c of Examples 1 to 4 prepared in the Preparation Step, 2D X-ray snapshot images of these solutions and two commercially available CT contrast media each for human or animal application were obtained using micro-CT to compare their relative X-ray absorption in tubes under the same conditions as a preliminary evaluation.
Overall, eight 250 μL-tubes were prepared each containing the following: 250 μL each of four CT contrast media prepared in the Preparation Step, 250 μL of “Fenestra VC”, 250 μL of “Iobrix”, 250 μL of 20 mM Tris buffer solution (pH 7.4, 0.1 mg/mL EDTA included) as a negative control group, and one empty tube as a negative control group. These eight tubes were then arranged side by side in parallel on the imaging bed of a NFR Polaris-G90 in vivo micro-CT scanner (manufacturer: NanoFocusRay), and 2D X-ray snapshot images were taken [imaging parameters: 60 kVp, 60 μA, 500 ms exposure time, field of view (FOV) 80.00×83.71 mm^2, 1.4× magnification].

[4] = test system: C57BL/6 mice; test: In vivo micro-CT imaging evaluation
Procedure: Specifically, 6 to 8 weeks old healthy male C57BL/6 mice (Orient Bio, Korea) having the weight typically ranging from 15 g to 22 g were used as small animals. Each mouse was not fed water and food starting from approximately 12 hours before the injection of the contrast medium until the completion of CT imaging at 4 hours post-injection. The mice were fed water and food immediately after the completion of CT imaging at 4 hours post-injection. Before the injection of the contrast media, each mouse was anaesthetized in an induction chamber by administering 3% isoflurane in oxygen for about 5 minutes. Subsequently, the mouse was placed onto the imaging bed of a NFR Polaris-G90 in vivo micro-CT scanner (NanoFocusRay, Korea) lying in a prone position, and then the baseline (i.e., pre-contrast) scan was performed as a negative control group while being anesthesized by administering 1.5% isoflurane in oxygen [imaging parameters: 60 kVp, 60 μA, 500 ms exposure time, 360° scan angle, 600 scan number, 512 slices (i.e., image number); FOV: 80.00×83.71 mm^2 for low resolution whole-body imaging (1.4× magnification), 33.94×35.52 mm^2 for mid resolution chest and abdominal imaging (3.3× magnification), and 26.67×27.90 mm^2 for high resolution brain imaging (4.2× magnification)]. Next, the tail vein of the mouse was expanded by immersing the tail in a warm water for about 30 to 60 seconds while maintaining the mouse under anesthesia by administering 1.5% isoflurane in oxygen, and the corresponding amount of each contrast medium (15 mL/kg for the contrast media including the compounds of Examples 1 to 4, 10 mL/kg for “Fenestra VC”, and 2.5 mL/kg for “Iobrix”) was slowly injected into the tail vein of each mouse. Immediately after the injection of the contrast medium, the mouse was placed onto the imaging bed of a micro-CT scanner lying in a prone position, and the CT scan was performed at the corresponding resolution (low, mid, or high) while being anesthesized by administering 1.5% isoflurane in oxygen. […]

[5] = Dissolving the compound in buffer solution for a contrast medium; type: physicochemical; conditions: concentration appropriate for CT imaging
Procedure: as §1

[6] = incubated for 72 hours, 500 μg/mL, MTT
[7] = 250 mg/mL in 20 mM Tris buffer pH 7.4, mean±standard deviation
[8] = 30° C., 250 mg/mL in 20 mM Tris buffer pH 7.4, mean±standard deviation
[9] = 250 μL in tube, 2D X-ray snapshot, 60 kVp, 60 μA, own media 250 mg/mL

Row | Substance | cell survival rate ([1]; human, 72 h, 500 µg/mL) | Osmolality ([2]; pH 7.4) | Viscosity ([2]; pH 7.4) | X-ray transmission intensity [3] | cell survival rate [1, 6] | amount found in the kidney ([4]; mice, images at 1 hour after injection) | excretion (route and rate) ([4]; mice, tail vein injection, whole-body CT images) | Osmolality [2, 7] | Viscosity [2, 8] | X-ray transmission intensity [3, 9] | ease of dissolving in a buffer solution [5] | thickness of contrast medium solution felt during the injection ([4]; during injection)
1 | G2 PAMAM-mPEG2000-TIPAA Conjugate [Example 2] | 88.4% | 233.50 ± 9.75 mOsm/kg | 16.47 ± 0.80 mPa · s | 838.0 |  |  |  |  |  |  |  | 
2 | G1 PAMAM-mPEG2000-TIPAA Conjugate [Example 1] |  |  |  |  | 88.5% | a considerable amount thereof was found in the kidney within a relatively short period of time | mostly through kidney to bladder | 464.75 ± 3.59 mOsm/kg | 15.32 ± 0.39 mPa · s | 904.5 |  | 
3 | G3 PAMAM-mPEG2000-TIPAA Conjugate [Example 3] | 88.4% | 225.75 ± 1.26 mOsm/kg | 16.15 ± 0.53 mPa · s | 826.5 |  |  |  |  |  |  |  | 
4 | G4 PAMAM-mPEG2000-TIPAA Conjugate [Example 4] |  |  |  |  | 87.9% |  |  | 242.00 ± 4.08 mOsm/kg | 16.31 ± 0.61 mPa · s | 827.0 | more difficult to dissolve | felt thicker than Compound 2c of Example 2 or Compound 3c of Example 3

Source: patent US9387267B2, “Iodine-containing radial-shaped macromolecular compounds, preparation method thereof and contrast media compositions for CT comprising the same” (KOREA RESEARCH INSTITUTE OF BIOSCIENCE AND BIOTECHNOLOGY, priority 2010, dated 2016)
